According to publication PMC8458463, “Liquid condensation of reprogramming factor KLF4 with DNA provides a mechanism for chromatin organization”:

Columns and labels:
Conditions in all cases: protein: recombinant; tags: Nano-His6-TEV tag cleaved
[1] = molecular target: T1, KLF4 DBD (human, UniProt O43474 418-513); test: EMSA; Zn2+; DBD up to 15 uM; EMSA: 20 mM Tris pH 8, 50 mM NaCl, 5% glycerol, 0.01 mg/ml BSA, 0.1 mM DTT, 0.05 mM TCEP; gel run at 4 C; protein refolded with 3.3 eq ZnSO4
[2] = molecular target: T1, KLF4 DBD; test: EMSA; Zn2+; 1 uM DNA, 0-6 uM DBD; 1:1, 2:1 and 3:1 complexes, 3:1 needs 6 equivalents; EMSA: 20 mM Tris pH 8, 50 mM NaCl, 5% glycerol, 0.01 mg/ml BSA, 0.1 mM DTT, 0.05 mM TCEP; gel run at 4 C; protein refolded with 3.3 eq ZnSO4
[3] = molecular target: T1, KLF4 DBD; test: X-ray crystallography; Zn2+; 2.14 A, 1:1 complex; EMSA: 20 mM Tris pH 8, 50 mM NaCl, 5% glycerol, 0.01 mg/ml BSA, 0.1 mM DTT, 0.05 mM TCEP; gel run at 4 C; protein refolded with 3.3 eq ZnSO4
[4] = molecular target: T1, KLF4 DBD; test: EMSA; Zn2+; 1 uM DNA, 0-6 uM DBD; 3:1 complex at 3 equivalents, tighter than NANK; EMSA: 20 mM Tris pH 8, 50 mM NaCl, 5% glycerol, 0.01 mg/ml BSA, 0.1 mM DTT, 0.05 mM TCEP; gel run at 4 C; protein refolded with 3.3 eq ZnSO4

T1 sequence (O43474 418-513): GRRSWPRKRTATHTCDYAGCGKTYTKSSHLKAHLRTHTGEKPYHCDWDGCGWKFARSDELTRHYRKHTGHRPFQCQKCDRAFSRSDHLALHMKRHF

B1: NKC (dsDNA)
DNA 1: GAGGGGTGGGTC
DNA 2: GACCCACCCCTC
- binding result [1]: binds

B2: NANK (dsDNA)
DNA 1: AGGGGGTGTGCCCGCCAGGAGGGGTGGGTC
DNA 2: GACCCACCCCTCCTGGCGGGCACACCCCCT
- binding result [2]: binds

B3: NKB (dsDNA)
DNA 1: TGCCCGCCAGGA
DNA 2: TCCTGGCGGGCA
- binding result [1]: binds

B4: NKA (dsDNA)
DNA 1: AGGGGGTGTGCC
DNA 2: GGCACACCCCCT
- binding result [3]: binds

B5: NANKm (dsDNA)
DNA 1: AGGGGGTGTGCCCGCCAGGAGGGGTGGGTC
DNA 2: GACCCACCCCTCCTGGCGGGCACACCCCCT
modifications: 5-methyl-dC at position 13 of strand 1 (CpG in KLFB); complement strand methylation not stated
- binding result [4]: binds
